The text below walks through data of publication PMC11385167 (mAbs, 2024).

In general, Kd refers to a measure of binding affinity in units of concentration.

This experiment addresses T1, human MR C-type 1, full extracellular domain (human, UniProt P22897 19-1389).
T1 sequence (looked up): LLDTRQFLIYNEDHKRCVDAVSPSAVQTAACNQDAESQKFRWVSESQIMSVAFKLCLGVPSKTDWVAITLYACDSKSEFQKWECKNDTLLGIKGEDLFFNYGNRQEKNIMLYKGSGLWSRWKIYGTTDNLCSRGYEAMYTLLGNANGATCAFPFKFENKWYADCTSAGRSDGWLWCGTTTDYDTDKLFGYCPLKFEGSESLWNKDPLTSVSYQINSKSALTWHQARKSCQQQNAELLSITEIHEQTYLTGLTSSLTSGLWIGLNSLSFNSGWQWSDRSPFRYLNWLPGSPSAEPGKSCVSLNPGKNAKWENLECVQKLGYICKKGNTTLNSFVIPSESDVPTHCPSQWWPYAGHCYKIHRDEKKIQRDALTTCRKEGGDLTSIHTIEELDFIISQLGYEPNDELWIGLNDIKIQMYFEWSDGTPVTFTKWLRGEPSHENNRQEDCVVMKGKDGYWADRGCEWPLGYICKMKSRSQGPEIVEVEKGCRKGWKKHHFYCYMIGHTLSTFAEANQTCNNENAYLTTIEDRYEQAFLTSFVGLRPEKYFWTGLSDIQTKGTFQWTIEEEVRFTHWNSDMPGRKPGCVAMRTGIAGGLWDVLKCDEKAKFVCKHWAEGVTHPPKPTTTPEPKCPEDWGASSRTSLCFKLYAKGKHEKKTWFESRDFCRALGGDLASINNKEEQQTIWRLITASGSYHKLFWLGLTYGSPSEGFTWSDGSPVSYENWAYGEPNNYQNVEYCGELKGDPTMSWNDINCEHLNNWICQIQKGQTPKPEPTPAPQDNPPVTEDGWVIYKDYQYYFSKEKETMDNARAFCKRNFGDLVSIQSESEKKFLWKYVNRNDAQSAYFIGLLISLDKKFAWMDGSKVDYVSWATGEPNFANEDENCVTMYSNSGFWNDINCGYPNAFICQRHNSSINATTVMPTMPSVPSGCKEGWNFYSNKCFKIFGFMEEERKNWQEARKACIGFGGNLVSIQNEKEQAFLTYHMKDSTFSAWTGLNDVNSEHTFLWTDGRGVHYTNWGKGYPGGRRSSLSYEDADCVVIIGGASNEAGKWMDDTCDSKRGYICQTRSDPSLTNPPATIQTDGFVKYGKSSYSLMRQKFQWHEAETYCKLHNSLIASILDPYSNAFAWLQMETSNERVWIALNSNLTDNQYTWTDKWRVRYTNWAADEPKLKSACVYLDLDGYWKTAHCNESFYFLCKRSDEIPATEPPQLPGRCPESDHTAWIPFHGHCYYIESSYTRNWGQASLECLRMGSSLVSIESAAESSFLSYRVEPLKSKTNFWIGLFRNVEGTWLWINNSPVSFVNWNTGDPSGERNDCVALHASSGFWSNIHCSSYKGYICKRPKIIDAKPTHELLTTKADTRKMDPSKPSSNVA
As to the kind of experiment: SPR. In general terms: SPR reads the build-up and loss of mass on a sensor chip optically.

B1: RNAse B (enzyme, UniProt P61823 27-150, looked up)
chain: KETAAAKFERQHMDSSTSAASSSNYCNQMMKSRNLTKDRCKPVNTFVHESLADVQAVCSQKNVACKNGQTNCYQSYSTMSITDCRETGSSKYPNCAYKTTQANKHIIVACEGNPYVPVHFDASV
modifications: single N-glycosylation site containing mainly M5 and M6 N-glycans
Take B1: the affinity, expressed as Kd, was 1300 nM.
